Test results reported in US20230392126A1, “TISSUE ORGANOIDS” (priority 2016, published 2023).

Legend:
[1] = system: epidermal stem cells; experiment: Anchorage-independent growth in soft agar; details: SCC cancer initiating cells as positive control
[2] = Extinction and ethanol-induced reinstatement of CPP; assay type: in vivo, mouse; details: 1 g/kg ethanol i.p., specificity control
Experimental: Extinction and reinstatement of CPP: Following CPP acquisition, mice underwent extinction, in which the procedure was identical to that in the test day. In each extinction day, mice were allowed to explore the entire chambers for 20 min and time spent in each area was recorded. Extinction was performed until the CPP decreased to a level that was not different from that of the pretest in consecutive two days. On the following day of the last extinction, mice underwent reinstatement procedures, in which mice that were trained for cocaine CPP received an i.p. injection of 15 mg/kg cocaine, and mice that were trained for ethanol CPP received an i.p. injection of 1 g/kg ethanol. Immediate after injection, mice were allowed to explore the entire chambers for 20 min and time spent in each area was recorded.
Specific methods: One group of GhBChE and one group of GWT mice (n=9 in each group) were trained for cocaine CPP 7 days after engraftment (FIG. 18A). Mice underwent pretest on Day 1, four days of cocaine conditioning day 2 to Day 5, and CPP test on Day 6. One group of GhBChE and one group of GWT mice (n=8 in each group) were trained for ethanol CPP 7 days after engraftment (FIG. 18B). Mice underwent pretest on Day 1, four ethanol conditioning day 2 to Day 5, and CPP test on Day 6. […]

[3] = Acquisition of cocaine conditioned place preference (CPP); assay type: in vivo, mouse; details: 10 mg/kg cocaine i.p., grafted cocaine-naïve mice
Experimental: (§1) CPP apparatus: The CPP apparatus (FIG. 17; Med Associates, E. Fairfield, VT, USA) consisted of two larger chambers (16.8×12.7×12.7 cm), which were separated by a smaller chamber (7.2×12.7×12.7 cm) as previously described (Yan et al., 2013). […] Time spent in each chamber was measure via photobeam breaks and recorded. CPP was determined on testing days via time spent in the drug-paired side minus time spent in the saline-paired side.
(§2) Acquisition of CPP: A biased CPP procedure was used similar to that from a previous study (Yan et al., 2013). Acquisition of CPP consisted of three sequential procedures—pretest, conditioning, and test. […] On Day 6 (test day) mice were allowed to explore the entire chambers for 20 min and time spent in each area was recorded. […]
(§3) Next, protection against development of cocaine-seeking was assessed using the conditioned place preference (CPP) paradigm, which is thought to model reward learning and seeking because experimental animals approach and remain in contact with cues that have been paired with the effects of the reward. hBChE-expressing cells were grafted to cocaine-naïve mice with GWT animals as controls. […] As an additional control, ethanol CPP was measured after 4 days of conditioning in GhBChE and GWT mice.

[4] = Acquisition of ethanol CPP in GhBChE and GWT mice; assay type: in vivo, mouse; details: 2 g/kg ethanol i.p., specificity control
Experimental: as §1, §2, §3

[5] = Acute drug overdose test: METH-induced lethality; assay type: in vivo, mouse; details: 34, 68, 100, 160 mg/kg METH i.p.
Experimental: For all behavioral experiments except where noted, C57BL/6J mice were used. Roughly equal numbers of adult male and female mice were group-housed until surgery. Mice were maintained under controlled temperature and humidity conditions on a 12 h:12 h light:dark cycle (lights on at 7:00). Water and food were available ad libitum. Mice weighed around 25-30 g at the beginning of the experiments. All procedures followed National Institutes of Health Guide for the Care and Use of Laboratory Animal and were approved by the University of Chicago Institutional Animal Care and Use Committee.
Drug: Cocaine HCl and methamphetamine HCl (Sigma-Aldrich, Saint Louis, MO) were dissolved in sterile saline and delivered intraperitoneally at appropriates doses in a volume of 10 mL/kg. […]
Acute drug overdose test: Two weeks after grafting surgery, 4 groups of GhBChE and 4 groups of GWT mice (n=8 each in each group) received i.p. injections of cocaine at 40, 120, and 160 mg/kg. […] Mice were monitored for 2 h following injection and percent of cocaine- and METH-induced lethality was calculated.
To first determine whether engrafting hBChE-expressing cells protects mice from acute systemic toxicity of cocaine, we delivered different doses of cocaine to grafted mice and calculated the lethality rates of cocaine. […]

[6] = system: mouse epidermal cells; experiment: Expression and secretion of hBChE by immunoblots and ELISA (mouse epidermal cells); details: engineered mouse epidermal cells

B1: hBChE: modified human butyrylcholinesterase (E30-6, SEQ ID NO: 41), cocaine hydrolase, expressed from engineered epidermal cells / skin grafts (protein)
chain: MHSKVTIICIRFLFWFLLLCMLIGKSHTEDDIIIATKNGKVRGMNLTVFGGTVTAFLGIPYAQPPLGRLRFKKPQSLTKWSDIWNATKYANSCCQNIDQSFPGFHGSEMWNPNTDLSEDCLYLNVWIPAPKPKNATVLIWIYGGGFQTGTSSLHVYDGKFLARVERVIVVSMNYRVGALGFLALPGNPEAPGNMGLFDQQLALQWVQKNIAAFGGNPKSVTLFGESSGAASVSLHLLSPGSHSLFTRAILQSGSANAPWAVTSLYEARNRTLNLAKLTGCSRENETEIIKCLRNKDPQEILLNEAFVVPYGTALGVNFGPTVDGDFLTDMPDILLELGQFKKTQILVGVNKDEGTWFLVGGAPGFSKDNNSIITRKEFQEGLKIFFPGVSEFGKESILFHYTDWVDDQRPENYREALGDVVGDYNFICPALEFTKKFSEWGNNAFFYYFEHRSSKLPWPEWMGVMHGYEIEFVFGLPLERRDNYTKAEEILSRSIVKRWANFAKYGNPNETQNNSTSWPVFKSTEQKYLTLNTESTRIMTKLRAQQCRFWTSFFPKVLEMTGNIDEAEWEWKAGFHRWNNYMMDWKNQFNDYTSKKESCVGL
modifications: Human mutant BChE
With B1 the “anchorage-independent growth (tumorigenicity)” value [1] was “cannot grow in suspension”, the “ethanol-induced reinstatement of CPP” value [2] was “similarly reinstated in both GhBChE and GWT mice” and the “cocaine CPP after 4 days of place conditioning” value [3] was “showed no such preference”. For the same molecule, the “ethanol CPP after 4 days of conditioning” value [4] was “spent significantly more time in ethanol-paired environments”, the “METH-induced lethality, GhBChE vs GWT” value [5] was “no difference in lethality” and the “expression and secretion of hBChE” value [6] was “robust expression and secretion of hBChE”.
